Source: US20250352661A1 (MYTHIC THERAPEUTICS, published 2025)
Where a chain is given by its changes, count along the chain named. In names and notes the source's numbering stands.

Tests used:
[1] = biological target: T1, LRRC15 on the surface of LRRC15+ cells (SAOS-2, U87MG) (UniProt Q8TF66 22-581, limits assumed); test: cell-based or functional assay
T1 sequence (looked up): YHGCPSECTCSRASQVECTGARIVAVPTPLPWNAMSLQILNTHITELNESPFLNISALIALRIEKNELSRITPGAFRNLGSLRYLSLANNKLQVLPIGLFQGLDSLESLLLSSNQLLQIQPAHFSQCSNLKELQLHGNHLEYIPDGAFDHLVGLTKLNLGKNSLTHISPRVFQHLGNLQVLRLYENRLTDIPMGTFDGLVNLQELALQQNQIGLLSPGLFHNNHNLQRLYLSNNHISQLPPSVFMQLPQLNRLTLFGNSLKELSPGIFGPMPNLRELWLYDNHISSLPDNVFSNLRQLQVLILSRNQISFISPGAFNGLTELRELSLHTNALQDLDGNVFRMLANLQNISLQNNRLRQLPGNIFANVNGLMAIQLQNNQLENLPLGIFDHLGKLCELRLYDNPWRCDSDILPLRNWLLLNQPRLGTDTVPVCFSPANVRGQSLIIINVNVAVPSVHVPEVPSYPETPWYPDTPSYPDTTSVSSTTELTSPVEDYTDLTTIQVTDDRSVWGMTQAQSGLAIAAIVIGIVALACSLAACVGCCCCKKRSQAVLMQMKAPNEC

[2] = biological target: T1, LRRC15 on the surface of LRRC15+ cells …; test: cell-based or functional assay; remark: listed apart in the source
[3] = biological target: T1, LRRC15 on the surface of LRRC15+ cells …; test: cell-based or functional assay; remark: listed apart in the source
[4] = biological target: T1, LRRC15 on the surface of LRRC15+ cells …; test: cell-based or functional assay; remark: listed apart in the source
[5] = biological target: T2, LRRC15 on LRRC15 positive cell lines SAOS2 and G292 (UniProt Q8TF66 22-581, limits assumed); test: cell binding on G292 cells (LRRC15 positive), pH 7.4; set-up: unit not given here
T2 construct: whole, on cells
T2 sequence (looked up): T1 sequence (looked up)

[6] = biological target: T2, LRRC15 on LRRC15 positive cell lines …; test: cell binding on SAOS2 cells (LRRC15 positive), pH 7.4; set-up: unit not given here

B1: MYT2737-c-ADC (antibody, human IgG1, kappa, V domains shown)
VH: EVQLVQSGAEVKKPGASVKVSCKASGYKFSSYWIEWVKQAPGQGLEWIGEILPGSDTTNYNEKFKDRATFTSDTSINTAYMELSRLRSDDTAVYYCARDRGNYRAWFGYWGQGTLVTVSS
VL: DIQMTQSPSSLSASVGDRVTITCRASQDISNYLNWYQQKPGGAVKFLIYHTSRLHSGVPSRFSGSGSGTDYTLTISSLQPEDFATYFCQQGEALPWTFGGGTKVEIKR
modifications: vcMMAE conjugated to the cysteine at position 205 of the light chain
- 20 nM Efficacy (cytotoxicity of candidates against SAOS-2 cells) [1]: 20.2

B2: MYT8391 (antibody, V domains shown)
VH: EVQLVESGGGLVQPGGSLRLSCTASGLDFRRTNYICWVRQAPGKGLEWVGCIYIADVVHYYASWAKGRFTFSRDTSKNTVYLQMNSLRAEDTAVYYCARGADGGFHYGMDLWGQGTLVTVSS
VL: EIVMTQSPSTLSASVGDRVIITCQASQSIGNYLSWYQQKPGKAPKRLIYSASTLPSGVPSRFSGSGSGAEFTLTISSLQPDDFATYYCQNNYWLAGYGHPFGQGTKLTVL
- Internalization in SAOS-2 cells (10 nM, 24 hours), FOB = fold over background (IgG control) [2]: 2.94 fold over background (IgG control)
- Internalization in SAOS-2 cells (10 nM, 24 hours), FOS = fold over samrotamab [2]: 1.2 fold over samrotamab
- Internalization in U87MG cells (10 nM, 24 hours), FOB = fold over background (IgG control) [3]: 3.13 fold over background (IgG control)
- Internalization in U87MG cells (10 nM, 24 hours), FOS = fold over samrotamab [3]: 2.49 fold over samrotamab
- Cytotoxicity against SAOS-2 cells, Fold over MYT5438 (mAb complexed with MMAF-conjugated secondary antibody, CTG assay) [4]: 1.14 fold over MYT5438

B3: MYT8391 (antibody, V domains shown)
VH: B2 VH
VL: B2 VL
notes: Humanized 15G7 variant (HC descriptor V106H); also called hu 15G7 HC his variant; hu 15G7 HC his scan variant
- Affinity [5]: 0.336
- Affinity [6]: 0.483

B4: MYT8415-c-ADC (antibody, human IgG1, kappa, V domains shown)
VH: B2 VH with H106V
VL: EIVMTQSPSTLSASVGDRVIITCQASQSIGNYLSWYQQKPGKAPKRLIYSASTLPSGVPSRFSGSGSGAEFTLTISSLQPDDFATYYCQNNHWLAGYGHPFGQGTKLTVLR
modifications: vcMMAE conjugated to the cysteine at position 205 of the light chain
- 20 nM Efficacy (cytotoxicity of candidates against SAOS-2 cells) [1]: 38.7

B5: MYT8417-c-ADC (antibody, human IgG1, kappa, V domains shown)
VH: B2 VH with H106V
VL: B4 VL with H92Y, G96H
modifications: vcMMAE conjugated to the cysteine at position 205 of the light chain
- 20 nM Efficacy (cytotoxicity of candidates against SAOS-2 cells) [1]: 42.5

B6: MYT8391-c-ADC (antibody, human IgG1, kappa, V domains shown)
VH: B2 VH
VL: B4 VL with H92Y
modifications: vcMMAE conjugated to the cysteine at position 205 of the light chain
- 20 nM Efficacy (cytotoxicity of candidates against SAOS-2 cells) [1]: 63.8

B7: MYT8417 (antibody, V domains shown)
VH: B2 VH with H106V
VL: B2 VL with G96H
notes: Humanized 15G7 variant (LC descriptor G112H); also called hu 15G7 LC his variant
- Affinity [5]: 0.76
- Affinity [6]: 0.554

B8: MYT8415 (antibody, V domains shown)
VH: B2 VH with H106V
VL: B2 VL with Y92H
notes: Humanized 15G7 variant (LC descriptor Y108H); also called hu 15G7 LC his variant
- Affinity [5]: 1.11
- Affinity [6]: 0.754

B9: MYT8416 (antibody, V domains shown)
VH: B2 VH with H106V
VL: B2 VL with W93H
notes: Humanized 15G7 variant (LC descriptor W109H); also called hu 15G7 LC his variant
- Affinity [5]: 1.37
- Affinity [6]: 1.15

B10: MYT8094 (antibody, IgG1, V domains shown)
VH: EVQLVESGGGLVQPGGSLRLSCTASGFSFSSSHWICWVRQAPGKGLEWVGCIYAGSIGSTYYASWAKGRFTISRDTSKNTVYLQMNSLRAEDTAVYYCARAPNDIYNYYFNLWGQGTLVTVSS
VL: EIVMTQSPSTLSASVGDRVIITCQASENIYNYLAWYQQKPGKAPKLLIYYASTLASGVPSRFSGSGSGAEFTLTISSLQPDDFATYYCQSGYVSKSSTFGQGTKLTVL
- Internalization in SAOS-2 cells (10 nM, 24 hours), FOB = fold over background (IgG control) [2]: 3.15 fold over background (IgG control)
- Internalization in SAOS-2 cells (10 nM, 24 hours), FOS = fold over samrotamab [2]: 1.32 fold over samrotamab
- Internalization in U87MG cells (10 nM, 24 hours), FOB = fold over background (IgG control) [3]: 3.52 fold over background (IgG control)
- Internalization in U87MG cells (10 nM, 24 hours), FOS = fold over samrotamab [3]: 2.94 fold over samrotamab
- Cytotoxicity against SAOS-2 cells, Fold over MYT5438 (mAb complexed with MMAF-conjugated secondary antibody, CTG assay) [4]: 1.45 fold over MYT5438

B11: MYT9521 (antibody, V domains shown)
VH: B10 VH
VL: B10 VL with T53D
- Internalization in SAOS-2 cells (10 nM, 24 hours), FOB = fold over background (IgG control) [2]: 3.02 fold over background (IgG control)
- Internalization in SAOS-2 cells (10 nM, 24 hours), FOS = fold over samrotamab [2]: 1.24 fold over samrotamab
- Internalization in U87MG cells (10 nM, 24 hours), FOB = fold over background (IgG control) [3]: 3.42 fold over background (IgG control)
- Internalization in U87MG cells (10 nM, 24 hours), FOS = fold over samrotamab [3]: 2.82 fold over samrotamab
- Cytotoxicity against SAOS-2 cells, Fold over MYT5438 (mAb complexed with MMAF-conjugated secondary antibody, CTG assay) [4]: 1.49 fold over MYT5438

B12: MYT9731 (antibody, V domains shown)
VH: B10 VH
VL: B10 VL with N28E
- Cytotoxicity against SAOS-2 cells, Fold over MYT5438 (mAb complexed with MMAF-conjugated secondary antibody, CTG assay) [4]: 1.05 fold over MYT5438

B13: MYT3315-c-ADC (antibody, human IgG1, kappa, V domains shown)
VH: EVQLVESGGGLVQPGGSLRLSCAVSGFSLTSYGVHWVRQATGKGLEWLGVIWAGGSTNYNSALMSRLTISKENAKSSVYLQMNSLRAGDTAMYYCATHMITEDYYGMDYWGQGTTVTVSS
VL: DIVMTQSPDSLAVSLGERATINCKSSQSLLNSRTRKNYLAWYQQKPGQSPKLLIYWASTRHSGVPDRFSGSGSGTDFTLTISSLQAEDVAVYYCKQSYNLPTFGGGTKVEIKR
modifications: vcMMAE conjugated to the cysteine at position 205 of the light chain
- 20 nM Efficacy (cytotoxicity of candidates against SAOS-2 cells) [1]: 22

B14: MYT8500 (antibody, V domains shown)
VH: EVQLVESGGGLVQPGGSLRLSCTASGFSFSGSYWICWVRQAPGKGLEWVGCINGGSHDITYYASWAKGRFTISRDTSKNTVYLQKTSLRAEDTAVYYCASDTSYTAYGNFYFNLWGQGTLVTVSS
VL: EIVMTQSPSPLSASVGDRVIITCQSSQSVLNNNWLAWYQQKPGKAPKLLIYDASSLASGVPSRFSGSGSGAEFTLTISSLQPDDFATYYCQGEFSCGSADCNAFGQGTKLTVL
- Internalization in SAOS-2 cells (10 nM, 24 hours), FOB = fold over background (IgG control) [2]: 2.68 fold over background (IgG control)
- Internalization in SAOS-2 cells (10 nM, 24 hours), FOS = fold over samrotamab [2]: 1.03 fold over samrotamab
- Internalization in U87MG cells (10 nM, 24 hours), FOB = fold over background (IgG control) [3]: 2.65 fold over background (IgG control)
- Internalization in U87MG cells (10 nM, 24 hours), FOS = fold over samrotamab [3]: 1.93 fold over samrotamab
- Cytotoxicity against SAOS-2 cells, Fold over MYT5438 (mAb complexed with MMAF-conjugated secondary antibody, CTG assay) [4]: 1.06 fold over MYT5438

B15: MYT8483 (antibody, IgG1, V domains shown)
VH: B14 VH with H57L
VL: B14 VL
notes: Humanized 24D9; also called hu24D9; Parental
- Affinity [5]: 2.07
- Affinity [6]: 1.65

B16: MYT8483-c-ADC (antibody, human IgG1, kappa, V domains shown)
VH: B14 VH with H57L
VL: EIVMTQSPSPLSASVGDRVIITCQSSQSVLNNNWLAWYQQKPGKAPKLLIYDASSLASGVPSRFSGSGSGAEFTLTISSLQPDDFATYYCQGEFSCGSADCNAFGQGTKLTVLR
modifications: vcMMAE conjugated to the cysteine at position 205 of the light chain
- 20 nM Efficacy (cytotoxicity of candidates against SAOS-2 cells) [1]: 29.4

B17: MYT8500 (antibody, V domains shown)
VH: B14 VH
VL: B14 VL
notes: also called hu 24D9 HC Hydrophobicity Variant; hu24D9 HC Dev
- Affinity [5]: 2.21
- Affinity [6]: 1.22

B18: MYT9776-c-ADC (antibody, human IgG1, kappa, V domains shown)
VH: B14 VH with S32H, N53H
VL: B16 VL with T111E, V112I, L113K
modifications: vcMMAE conjugated to the cysteine at position 205 of the light chain
- 20 nM Efficacy (cytotoxicity of candidates against SAOS-2 cells) [1]: 66.3
